Measurements: article PMC314469, “Protein Interaction Networks by Proteome Peptide Scanning” (PLoS Biology, 2004)

T1: Abp1 SH3 (ABP1_YEAST), P15891
T1 chain: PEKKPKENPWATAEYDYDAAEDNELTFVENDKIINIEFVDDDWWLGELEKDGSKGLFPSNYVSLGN


Target: T1, Abp1 SH3 (ABP1_YEAST), P15891
Assay: SPOT array

Binder | normalised SPOT signal, Boehringer light units (BLU); mean over the file's lines of this peptide
QNLPRHDADFPPRP [YHR030C 429-442] | 22
QRALAKDLIVPRRP [YGL099W 127-140] | 42100
QLDMDMYPYKLKP [YLR375W 257-269] | 57.3
QVHRHEPPVTSRP [YDL036C 175-187] | 133
QYDEIHIPAPSKP [YER172C 459-471] | 40.6
QLTTEVWRKVPMKP [YCR032W 1846-1859] | 897
QMFLSIQPQEARP [YPL125W 1020-1032] | 310
REGQVLYDPEPFKP [YNL086W 58-71] | 72.5
QVNSLTLPIWVRP [YNL169C 143-155] | 215
RDYYLSFPESERP [YDR242W 430-442] | 41
QVEPTLDEELPKRP [YDR422C 627-640] | 58.1
RERLRANPTDKKP [YOR023C 518-530] | 303
QSQLTSIAAVPPKP [YDL030W 480-493] | 92.9
QPPTGILPLAPLRP [YPL085W 911-924] | 63.4
QQVPMPILQQPNRP [YNL278W 947-960] | 113
QLQKKNDRPSPLKP [YKL101W 857-870] | 347
QVILTRVPHDIRP [YDR414C 52-64] | 116
QRGQQGYPRQPQRP [YDR171W 23-36] | 333
RFSSVKTNRTPSKP [YOR196C 186-199] | 159
QSTKKAPPPVVKP [YBR108W 772-784] | 4860

Binder | normalised SPOT signal, Boehringer light units (BLU); mean over the file's lines of this peptide
QTATTLSPAKARP [YOR178C 4-16] | 122
QLATSLYPDIYKP [YFL007W 1286-1298] | 86.3
RGQSLEHPVTKKP [YGR165W 94-106] | 116
RAIYTITPETSRP [YIL080W 1034-1046] | 49.8
QSSTTTAAATPTKP [YHL004W 115-128] | 160
QVSGTRQSPIPKKP [YML007W 308-321] | 172
RDESSILPKNYRP [YDR365C 307-319] | 97.6
QVADVQWSPHPAKP [YDR128W 69-82] | 89.6
QRKSLRRPTLSKP [YOR264W 128-140] | 43
RDPKTREPLQPRP [YGR084C 80-92] | 297
QWGVIIINKMPLKP [YDR434W 319-332] | 62.9
RDRGVLQEIRPAKP [YMR302C 753-766] | 51
QPTERDEYKQPFKP [YPR175W 148-161] | 19.8
RGTSASHSPRPFRP [YLL029W 24-37] | 168
QPVIVNTPHLKKP [YHR064C 433-445] | 83.3
RELGLTRPISQKP [YHL009W-B 360-372] | 2940
RAAKLAAPENEKP [YOL040C 61-73] | 4.4
REYEKEFPGSYKP [YIL085C 485-497] | 13.6
QQEQNTPPLPPKP [YCL008C 172-184] | 16.1
RGNDESKNGTPPRP [YLR353W 192-205] | 89.4

Binder | normalised SPOT signal, Boehringer light units (BLU); mean over the file's lines of this peptide
QRFNNSNNSIPRKP [YPL032C 537-550] | 627
QLPNPAMPLLHRP [YER169W 386-398] | 160
QNDLPTGYYEPMKP [YLL016W 403-416] | 15.1
QSTPQTMRQAPKRP [YNL298W 490-503] | 7180
RAVYTITPETSRP [YGR109W-B 1008-1020] | 114
RATPVSTPVISKP [YHL007C 201-213] | 61.6
QKNYVYGRQDPKKP [YNL137C 407-420] | 147
QNSERAAQEFPNKP [YGR116W 858-871] | 75.2
QMVYIVDPSKRRP [YHR196W 194-206] | 445
RFKYSTNRGIPARP [YPL073C 76-89] | 110
RAQNSYQPMYQRP [YPL042C 7-19] | 696
QLRNELIKQGPKRP [YMR072W 33-46] | 212
RAVSDFVPGFAKP [YDR122W 674-686] | 198
QTPKVEKTEKPKKP [YLR287C-A 17-30] | 33.2
RDRLGTLPPDLRP [YPR179C 274-286] | 201
RFLPKPKVVGPPKP [YHR089C 121-134] | 1660
QMQIPKYENKPFKP [YBR073W 34-47] | 316
QSMISTRSTPPARP [YHR073W 189-202] | 3390
